From patent publication US20100184651A1 (DABUR PHARMA, published 2010)

Biological target: T1, VPAC1 receptor (human, UniProt P32241 31-457)
T1 sequence (looked up): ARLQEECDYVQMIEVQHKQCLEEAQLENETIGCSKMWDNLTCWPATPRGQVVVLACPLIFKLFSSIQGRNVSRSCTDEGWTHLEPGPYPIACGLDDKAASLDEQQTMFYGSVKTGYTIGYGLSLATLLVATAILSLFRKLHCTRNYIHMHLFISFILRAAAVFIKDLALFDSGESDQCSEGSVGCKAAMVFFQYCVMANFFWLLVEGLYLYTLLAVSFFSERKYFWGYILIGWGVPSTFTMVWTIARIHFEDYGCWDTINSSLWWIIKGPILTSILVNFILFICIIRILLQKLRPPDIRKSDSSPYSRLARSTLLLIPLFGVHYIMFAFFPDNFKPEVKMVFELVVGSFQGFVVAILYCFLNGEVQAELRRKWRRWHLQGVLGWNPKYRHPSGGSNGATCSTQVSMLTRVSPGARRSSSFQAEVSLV
Test: cell-based or functional assay

B1: VIP-BH3 BID fusion protein (other)
chain: MHSDAVFTDNYTRLRKQMAVKKYLNSILNGSSLLIARRMPNFNEDIIRNIARHLAQVGDSMDRLEHHHHHH
IC50, cytotoxicity on A549 cells (MTT assay, 24 h): ~5 µM | IC50, cytotoxicity on HT29 cells (MTT assay, 24 h): ~15 µM
